Our source for the Km and kcat values is PMC12238454, “Soyasaponin β-glucosidase confers soybean resistance to pod borer (Leguminivora glycinivorella)” (aBIOTECH, 2025).

For orientation: Km means the substrate concentration at which the rate is half of its maximum. Broadly, the kcat is the number of substrate molecules converted per active site and unit of time at saturation.

Experiment in all cases: purified protein
Holding throughout (format): biochemical, Glycine max
Holding throughout (details): 50 mM Na2HPO4-citric acid buffer, optimal pH 5.5 and temperature 42 °C, apparent Km, substrate 1.25-80 µM

Substrate in series [1]: CC1(C)C[C@H]2C3=CC[C@@H]4[C@@]5(C)CC[C@H](O[C@@H]6O[C@H](C(=O)O)[C@@H](O)[C@H](O)[C@H]6O[C@@H]6O[C@H](CO)[C@H](O)[C@H](O)[C@H]6O)[C@](C)(CO)[C@@H]5CC[C@@]4(C)[C@]3(C)CC[C@@]2(C)[C@H](O[C@@H]2OC[C@H](O)[C@H](O)[C@H]2O)[C@@H]1O
Substrate in series [2]: CC1(C)C[C@H]2C3=CC[C@@H]4[C@@]5(C)CC[C@H](O[C@@H]6O[C@H](C(=O)O)[C@@H](O)[C@H](O)[C@H]6O[C@@H]6O[C@H](CO)[C@H](O)[C@H](O)[C@H]6O[C@@H]6O[C@H](CO)[C@@H](O)[C@H](O)[C@H]6O)[C@](C)(CO)[C@@H]5CC[C@@]4(C)[C@]3(C)CC[C@@]2(C)[C@H](O[C@@H]2OC[C@H](O)[C@H](O)[C@H]2O)[C@@H]1O
Substrate in series [3]: C[C@@H]1O[C@@H](O[C@H]2[C@H](O[C@H]3[C@H](O[C@H]4CC[C@@]5(C)[C@@H](CC[C@]6(C)[C@@H]5CC=C5[C@@H]7CC(C)(C)[C@@H](O)[C@@H](O[C@@H]8OC[C@H](O)[C@H](O)[C@H]8O)[C@]7(C)CC[C@]56C)[C@@]4(C)CO)O[C@H](C(=O)O)[C@@H](O)[C@@H]3O)O[C@H](CO)[C@H](O)[C@@H]2O)[C@H](O)[C@H](O)[C@H]1O

B1: GmSSBG1 (SSBG1Δ24; GmBGLU13) (Glycine max) (protein)
chain: LDLSFLPSDFLFGIASSSYQYEGAYKSDGKGLSNWDNYTHGPGRSVIMDGSNGDIAIDHYHRYLEDIDLMETLGVNSYRLSLSWARILPKGRFGEPNHAGIEFYNRLIDVLLLKGIQPFVTLSHYDIPQELEDRYGSWLSPQLQEDFAFYADLCFKTFGDRVKYWVTFNEPNFLVSLGYRSGLYPPCRCSGQLAMAKCSEGDSEKEPFVAAHNVILSHAAAVDIYRTKYQTEQKGSIGIVLQHEWFEPMSNSTADKLASERARAFNFNWFLDPIIFGKYPTEMENVLGSLLPKFSSYEKEKLKRGLDFIGVNYYTAFYVQDCMYSACKPGPGISRTEGSYKKSGEKNGVPIGEPTPFSWFNIYPDGMEKTVTYVRDRYNNTPIFLTENGYAEEVDPNFTSEEHLNDFKRIKYMVDHIEALLAAIRKGADVRGYFAWTLIDSFEWIYGYTVRYGFHHVDYATLKRTPRLSASWYKQLLVQYKKTFLLGTSMTGHEKLVQHT
notes: N-terminal 24-residue signal peptide removed (SSBG1Δ24); MBP fusion from pMAL-c2x, E. coli BL21(DE3), amylose resin; tag removal not mentioned
Consider B1, for which the Km in “purified protein [1]” is recorded as 28.88 µM; in “purified protein [2]” it was 46.51 µM; in “purified protein [3]”, 165.90 µM. Further, the values for the kcat in “purified protein [1]”, in the series “purified protein [2]” and in the series “purified protein [3]” were 0.0018 s⁻¹, 0.0040 s⁻¹ and 0.0072 s⁻¹, respectively.
